T1: Splicing Factor Proline/Glutamine Rich, PSF/SFPQ (human (endogenous in BJ fibroblasts)), P23246
T1 chain: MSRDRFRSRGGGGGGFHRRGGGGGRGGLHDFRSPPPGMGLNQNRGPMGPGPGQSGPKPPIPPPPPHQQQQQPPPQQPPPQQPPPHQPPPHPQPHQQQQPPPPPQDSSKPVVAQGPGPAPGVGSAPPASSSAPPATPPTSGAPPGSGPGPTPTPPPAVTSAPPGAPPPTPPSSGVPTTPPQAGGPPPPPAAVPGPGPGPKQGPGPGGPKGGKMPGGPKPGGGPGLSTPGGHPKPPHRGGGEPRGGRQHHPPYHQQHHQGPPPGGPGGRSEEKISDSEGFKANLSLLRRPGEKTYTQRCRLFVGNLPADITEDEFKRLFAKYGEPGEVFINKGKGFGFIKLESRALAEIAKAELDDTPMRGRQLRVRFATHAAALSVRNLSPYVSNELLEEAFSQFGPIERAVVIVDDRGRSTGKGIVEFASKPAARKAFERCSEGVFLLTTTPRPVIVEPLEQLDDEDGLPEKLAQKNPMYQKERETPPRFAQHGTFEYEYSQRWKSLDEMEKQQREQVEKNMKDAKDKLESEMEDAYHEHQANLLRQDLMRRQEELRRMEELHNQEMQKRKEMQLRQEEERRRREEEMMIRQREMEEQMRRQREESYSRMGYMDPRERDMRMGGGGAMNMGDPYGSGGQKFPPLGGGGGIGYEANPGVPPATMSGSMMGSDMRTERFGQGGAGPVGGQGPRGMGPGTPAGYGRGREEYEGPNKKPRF

B1: Splicing Factor Proline/Glutamine Rich, PSF/SFPQ, P23246 1-707 (natural protein)
chain: T1 chain
B2: NonO overexpressed in BJ fibroblasts (natural protein, UniProt Q99K48 1-473, looked up)
chain: MQSNKAFNLEKQNHTPRKHHQHHHQQHHQQQQQQQQQQPPPPIPANGQQASSQNEGLTIDLKNFRKPGEKTFTQRSRLFVGNLPPDITEEEMRKLFEKYGKAGEVFIHKDKGFGFIRLETRTLAEIAKVELDNMPLRGKQLRVRFACHSASLTVRNLPQYVSNELLEEAFSVFGQVERAVVIVDDRGRPSGKGIVEFSGKPAARKALDRCSEGSFLLTTFPRPVTVEPMDQLDDEEGLPEKLVIKNQQFHKEREQPPRFAQPGSFEYEYAMRWKALIEMEKQQQDQVDRNIKEAREKLEMEMEAARHEHQVMLMRQDLMRRQEELRRMEELHNQEVQKRKQLELRQEEERRRREEEMRRQQEEMMRRQQEGFKGTFPDAREQEIRMGQMAMGGAMGINNRGAMPPAPVPPGTPAPPGPATMMPDGTLGLTPPTTERFGQAATMEGIGAIGGTPPAFNRPAPGAEFAPNKRRRY
notes: NonO cDNA expressed from a transfected plasmid; Its NonO fragments end at residue 473; The tag is therefore unknown; also called NonO OE; full-length NonO; source: BJ human diploid fibroblasts, stably transfected, nuclear or cytoplasmic extract

Assays:
[1] = target: T1, Splicing Factor Proline/Glutamine Rich, …; experiment: SEC; Superose 6 FPLC of nuclear and cytoplasmic extracts of BJ fibroblasts, untransfected or overexpressing NonO, day 8; 400 mM KCl, 20 mM HEPES pH 7.9, 1.0 mM MgCl2, 0.5 mM EGTA, 10% glycerol; fractions blotted with anti-NonO and anti-PSF; masses estimated from marker proteins; details: remark: other sources report otherwise
[2] = target: the molecule itself; experiment: as above

Row | Binder | stoichiometry N [1] | stoichiometry N [2]
1 | B1 | 2 | –
2 | B2 | – | 2
